Experimental data taken from paper PMC8466238, “Development of High Affinity Calcitonin Analog Fragments Targeting Extracellular Domains of Calcitonin Family Receptors” (Biomolecules, 2021).
The star is where a group is joined. FITC = O=C1OC2(c3ccc(O)cc3Oc3cc(O)ccc32)c2ccc(NC(=S)*)cc21; Ahx = NCCCCCC(=O)O

Key:
CGRP receptor = details: versus CGRP(27–37); cited from earlier work
Description: The mutational strategies for developing high-affinity sCT peptide fragments came from the systemic report on CGRP and its high-affinity analogs. […] This supports the idea that applying affinity-enhancing mutations to the cor ...

[1] = target: T1, RAMP1-CTR ECD fusion protein (hRAMP1.24–111-(GSA)3-hCTR.34–141-H6) (human, UniProt O60894 24-111; P30988 34-141); assay: fluorescence polarisation; competition binding, full curves: FITC-AC413(6–25) Y25P probe 10 nM, RAMP1-CTR ECD 77 nM, RAMP2-CTR ECD 67 nM or RAMP3-CTR ECD 252 nM, competitive peptide at multiple concentrations, all in solution; KI from non-linear regression of anisotropy; details: both partners purified
T1 construct: human receptor activity-modifying protein 1 (RAMP1), extracellular domain, residues 24-111; linker, printed as (GSA)3; human calcitonin receptor (CTR), extracellular domain, residues 34-141; Secreted from a pHLsec-based vector; also called AMY receptor 1 ECD; RAMP1 ECD-CTR ECD fusion; source: HEK293T, transiently transfected, secreted to cell culture media, purified (IMAC, SEC)
T1 chain: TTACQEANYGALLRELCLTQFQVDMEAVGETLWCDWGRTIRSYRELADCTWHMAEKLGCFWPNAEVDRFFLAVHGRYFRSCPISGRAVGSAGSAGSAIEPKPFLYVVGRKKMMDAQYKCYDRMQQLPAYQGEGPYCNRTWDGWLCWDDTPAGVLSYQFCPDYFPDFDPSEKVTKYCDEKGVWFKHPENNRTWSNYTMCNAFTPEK

[2] = target: T2, RAMP3-CTR ECD fusion protein (hRAMP3.25–112-(GSA)3-hCTR.34–141-H6) (human, UniProt O60896 25-112; P30988 34-141); assay: as above; details: both partners purified
T2 construct: human receptor activity-modifying protein 3 (RAMP3), extracellular domain, residues 25-112; linker, printed as (GSA)3; human calcitonin receptor (CTR), extracellular domain, residues 34-141; Secreted from a pHLsec-based vector; also called AMY receptor 3 ECD; RAMP3 ECD-CTR ECD fusion protein; source: HEK293S GnTI-, transiently transfected (PEI), secreted to cell culture media, purified (IMAC, SEC)
T2 chain: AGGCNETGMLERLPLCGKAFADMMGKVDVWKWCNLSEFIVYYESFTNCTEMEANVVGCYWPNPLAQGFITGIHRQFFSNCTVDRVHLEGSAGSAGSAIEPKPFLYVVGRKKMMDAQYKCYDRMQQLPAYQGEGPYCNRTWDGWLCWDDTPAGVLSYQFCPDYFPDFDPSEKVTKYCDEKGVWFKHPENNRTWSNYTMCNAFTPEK

[3] = target: T3, RAMP2-CTR ECD fusion protein (hRAMP2.55–140-(GSA)3-hCTR.34–141-H6) (human, UniProt O60895 55-140; P30988 34-141); assay: as above; details: both partners purified
T3 construct: human receptor activity-modifying protein 2 (RAMP2), extracellular domain, residues 55-140; linker, printed as (GSA)3; human calcitonin receptor (CTR), extracellular domain, residues 34-141; Secreted from a pHLsec-based vector; also called AMY receptor 2 ECD; RAMP2 ECD-CTR ECD fusion; source: HEK293T, transiently transfected, secreted to cell culture media, purified (IMAC, SEC)
T3 chain: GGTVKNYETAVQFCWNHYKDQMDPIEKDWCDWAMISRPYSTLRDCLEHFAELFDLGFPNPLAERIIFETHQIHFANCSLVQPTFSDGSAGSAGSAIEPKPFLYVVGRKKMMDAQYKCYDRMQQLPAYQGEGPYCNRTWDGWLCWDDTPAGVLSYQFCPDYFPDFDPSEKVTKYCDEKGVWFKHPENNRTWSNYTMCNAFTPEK

FITC-labeled sCT(22–32) = target: T4, FITC-labeled sCT(22–32) (salmon, SMILES …); assay: fluorescence polarisation; saturation binding: FITC-labeled peptide probe (10 nM) with rising receptor ECD concentrations; receptor ECD concentration at half of the maximal anisotropy; details: both partners purified
T4 construct: salmon calcitonin (sCT), residues 22-32; numbers count on: the mature 32-residue hormone; peptide probe of the FP assay with the CTR ECD; also called FITC-sCT(22–32); source: synthetic peptide (Genscript, HPLC-purified)
T4 peptide: {FITC-Ahx}-YPRTNTGSGTP-NH2

Molecule: CGRPmut: human alpha CGRP(27–37) with N31D, S34P, and K35F mutations
- increase in CGRP affinity for its receptor (CGRP receptor): 100 fold

B1: FITC-labeled AC413(6–25) with Y25P mutation (peptide)
peptide: {FITC-Ahx}-ANFLVRLQTYPRTNVGANTP-NH2
SMILES: CC(C)C[C@H](NC(=O)[C@H](CCCNC(=N)N)NC(=O)[C@@H](NC(=O)[C@H](CC(C)C)NC(=O)[C@H](Cc1ccccc1)NC(=O)[C@H](CC(N)=O)NC(=O)[C@H](C)NC(=O)CCCCCNC(=S)Nc1ccc2c(c1)C(=O)OC21c2ccc(O)cc2Oc2cc(O)ccc21)C(C)C)C(=O)N[C@@H](CCC(N)=O)C(=O)N[C@H](C(=O)N[C@@H](Cc1ccc(O)cc1)C(=O)N1CCC[C@H]1C(=O)N[C@@H](CCCNC(=N)N)C(=O)N[C@H](C(=O)N[C@@H](CC(N)=O)C(=O)N[C@H](C(=O)NCC(=O)N[C@@H](C)C(=O)N[C@@H](CC(N)=O)C(=O)N[C@H](C(=O)N1CCC[C@H]1C(N)=O)[C@@H](C)O)C(C)C)[C@@H](C)O)[C@@H](C)O
notes: residues 6-25 of AC413, an antagonistic amylin peptide analog, with Y25P; peptide probe of the FP assay with the AMY receptor ECDs; also called FITC-AC413(6–25) Y25P; source: synthetic peptide (Genscript, HPLC-purified)
- binding result [1]: binds
- binding result [2]: binds
- binding result [3]: binds

B2: calcitonin receptor extracellular domain (hCTR.34–141-H6) (receptor, human, UniProt P30988 34-141, looked up)
chain: IEPKPFLYVVGRKKMMDAQYKCYDRMQQLPAYQGEGPYCNRTWDGWLCWDDTPAGVLSYQFCPDYFPDFDPSEKVTKYCDEKGVWFKHPENNRTWSNYTMCNAFTPEK
notes: human calcitonin receptor (CTR), extracellular domain, residues 34-141; Secreted from a pHLsec-based vector; also called CTR ECD; purified CTR ECD; source: HEK293T, transiently transfected, secreted to cell culture media, purified (IMAC, SEC)
- receptor ECD concentration that produced a half of the maximal anisotropy with the peptide probe (FITC-labeled sCT(22–32)): 500 nM
